Three molecules from paper doi:10.1101/2019.12.18.881029 (bioRxiv, 2019) can be followed below.

B1: 101 (antibody, V domains shown)
VH: QSVKESEGGLFKPTDTLTLTCTVSGFSLSRYGVSWVRQAPGSGLQWIGAIGETGRAYYANWAKSRSTITRNTNVNTVTLKMTSLTAADTATYFCARGEEFNNGWGAFNIWGPGTLVTVSS
VL: AYDMTQTPASVSEPVGGTVTIKCQASENIYTSLAWYQQKPGQPPKLLIYSASTLASGVPSRFKGSGSGTEFTLTISDLECADAASYYCQQGFATSNVENPFGGGTEVVVK
B2: 810 (antibody, V domains shown)
VH: B1 VH with T14A, S42N, Q45E, A49T, T53A, K63R, N71T, V74L, K80T, E99V
VL: B1 VL with N28S, T31S, S32G, S50Q, P59S, E70D, T74A, S85T, A93G, T105S
B3: 877 (antibody, V domains shown)
VH: B1 VH with S34T, S42N, A49T, A56S, N60S, I68V, V74E, E99L
VL: B1 VL with T31S, P59S, D77G, L78V, E79Q, A81E, S85T, A93G, S95N

Numbering of substitutions follows the chain as printed.

In the experiment the target is recombinant human TNFa (Shanghai Primegene Bi-Tech) (Homo sapiens, UniProt P01375).
Chain of recombinant human TNFa (Shanghai Primegene Bi-Tech) (P01375 whole entry): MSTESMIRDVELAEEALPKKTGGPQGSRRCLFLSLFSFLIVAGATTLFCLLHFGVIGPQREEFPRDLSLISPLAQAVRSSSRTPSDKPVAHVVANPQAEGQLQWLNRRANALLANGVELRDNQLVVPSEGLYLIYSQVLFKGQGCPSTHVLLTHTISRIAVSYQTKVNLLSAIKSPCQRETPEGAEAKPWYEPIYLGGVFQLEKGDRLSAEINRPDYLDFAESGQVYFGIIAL
With B1, the binding result is reported as “binds”.

On to B2, for which the binding result was “binds”.

For the molecule B3, the binding result is “binds”.
